Where two headings read alike, the source gives them in different places.
Experiments:
Test in all cases: ELISA
[1] = biological target: T1, human CD81 mutant A164T (human, UniProt P60033 1-236, limits assumed)
T1 construct: as m30; not shown: C-terminal V5 and 6xHis tags
T1 sequence: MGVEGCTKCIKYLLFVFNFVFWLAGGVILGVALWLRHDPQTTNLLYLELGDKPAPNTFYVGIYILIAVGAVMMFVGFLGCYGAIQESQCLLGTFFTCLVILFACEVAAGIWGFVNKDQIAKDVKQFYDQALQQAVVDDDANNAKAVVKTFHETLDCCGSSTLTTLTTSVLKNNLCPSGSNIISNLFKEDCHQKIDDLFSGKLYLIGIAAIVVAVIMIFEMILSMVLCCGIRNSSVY
How it was run: (§1)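 CHO cells transiently expressed V5- and 6×His-tagged altered human CD81 from pcDNA-DEST40 for 48 hours. Membranes solubilised in 1% n-octylglucoside were bound to Ni-NTA His Sorb plates at 5 μg/100 μL/well for 3 hours at 4° C, then incubated with antibody for 1 hour at room temperature and read at 450 nm after HRP anti-human IgG4 and TMB. Relative binding affinity is the percentage of unmodified CD81 binding after correction for V5-tag expression.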

[2] = biological target: T2, human CD81 mutant V135A (human, UniProt P60033 1-236, limits assumed)
T2 construct: as m30; not shown: C-terminal V5 and 6xHis tags
T2 sequence: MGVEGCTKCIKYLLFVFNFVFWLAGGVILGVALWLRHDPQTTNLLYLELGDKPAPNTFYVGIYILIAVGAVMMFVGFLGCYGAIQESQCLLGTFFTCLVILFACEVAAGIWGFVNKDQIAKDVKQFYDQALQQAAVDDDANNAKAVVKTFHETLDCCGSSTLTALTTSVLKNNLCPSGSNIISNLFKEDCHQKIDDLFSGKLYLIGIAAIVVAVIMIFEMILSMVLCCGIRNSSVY
How it was run: as §1

[3] = biological target: T3, human CD81 mutant L165A (human, UniProt P60033 1-236, limits assumed)
T3 construct: as m30; not shown: C-terminal V5 and 6xHis tags
T3 sequence: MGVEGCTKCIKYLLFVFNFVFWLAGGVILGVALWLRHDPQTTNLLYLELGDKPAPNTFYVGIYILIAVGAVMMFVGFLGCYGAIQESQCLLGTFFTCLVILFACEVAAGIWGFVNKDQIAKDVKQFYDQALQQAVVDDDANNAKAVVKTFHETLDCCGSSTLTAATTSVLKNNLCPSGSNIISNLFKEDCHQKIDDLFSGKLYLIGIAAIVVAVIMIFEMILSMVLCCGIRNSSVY
How it was run: as §1

[4] = biological target: T4, human CD81 mutant V169A (human, UniProt P60033 1-236, limits assumed)
T4 construct: as m30; not shown: C-terminal V5 and 6xHis tags
T4 sequence: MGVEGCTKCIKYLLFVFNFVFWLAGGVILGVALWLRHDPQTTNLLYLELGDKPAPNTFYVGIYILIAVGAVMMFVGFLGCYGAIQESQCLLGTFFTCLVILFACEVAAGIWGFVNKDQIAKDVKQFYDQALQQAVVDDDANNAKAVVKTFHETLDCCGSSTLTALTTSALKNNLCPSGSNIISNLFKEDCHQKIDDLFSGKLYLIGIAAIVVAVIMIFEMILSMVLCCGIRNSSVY
How it was run: as §1

[5] = biological target: T5, human CD81 mutant D137A (human, UniProt P60033 1-236, limits assumed)
T5 construct: as m30; not shown: C-terminal V5 and 6xHis tags
T5 sequence: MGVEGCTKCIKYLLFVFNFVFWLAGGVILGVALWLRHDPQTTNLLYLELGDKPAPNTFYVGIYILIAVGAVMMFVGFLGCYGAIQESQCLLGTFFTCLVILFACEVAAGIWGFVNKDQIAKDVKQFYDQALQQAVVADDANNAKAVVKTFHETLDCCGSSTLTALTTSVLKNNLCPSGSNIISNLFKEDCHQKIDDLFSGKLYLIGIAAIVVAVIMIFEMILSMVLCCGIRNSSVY
How it was run: as §1

[6] = biological target: T6, human CD81 mutant G158S (human, UniProt P60033 1-236, limits assumed)
T6 construct: as m30; not shown: C-terminal V5 and 6xHis tags
T6 sequence: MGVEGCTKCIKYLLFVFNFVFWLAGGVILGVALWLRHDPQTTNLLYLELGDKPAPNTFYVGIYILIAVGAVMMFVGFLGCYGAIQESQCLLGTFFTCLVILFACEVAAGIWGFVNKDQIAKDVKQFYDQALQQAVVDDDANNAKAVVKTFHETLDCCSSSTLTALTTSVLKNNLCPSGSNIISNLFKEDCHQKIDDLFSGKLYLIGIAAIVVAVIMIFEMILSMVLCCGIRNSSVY
How it was run: as §1

[7] = biological target: T7, human CD81 mutant A164V (human, UniProt P60033 1-236, limits assumed)
T7 construct: as m30; not shown: C-terminal V5 and 6xHis tags
T7 sequence: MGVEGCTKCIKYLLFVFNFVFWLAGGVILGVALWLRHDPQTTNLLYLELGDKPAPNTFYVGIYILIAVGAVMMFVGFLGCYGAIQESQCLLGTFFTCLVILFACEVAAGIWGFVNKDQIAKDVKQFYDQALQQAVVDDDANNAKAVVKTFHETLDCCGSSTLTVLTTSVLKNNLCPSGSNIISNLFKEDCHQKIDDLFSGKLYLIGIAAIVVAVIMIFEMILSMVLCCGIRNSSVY
How it was run: as §1

[8] = biological target: T1, human CD81 mutant A164T; remark: listed apart in the source
How it was run: as §1

[9] = biological target: T5, human CD81 mutant D137A; remark: listed apart in the source
How it was run: as §1

[10] = biological target: T8, human CD81 mutant N172A (human, UniProt P60033 1-236, limits assumed)
T8 construct: as m30; not shown: C-terminal V5 and 6xHis tags
T8 sequence: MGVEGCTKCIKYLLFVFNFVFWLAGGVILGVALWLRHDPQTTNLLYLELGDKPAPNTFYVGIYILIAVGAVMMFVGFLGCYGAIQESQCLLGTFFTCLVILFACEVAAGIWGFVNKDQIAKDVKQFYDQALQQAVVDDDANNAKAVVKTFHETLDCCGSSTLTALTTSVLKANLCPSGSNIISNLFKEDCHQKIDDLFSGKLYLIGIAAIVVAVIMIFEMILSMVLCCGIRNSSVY

[11] = biological target: T9, human CD81 mutant Y127W (human, UniProt P60033 1-236, limits assumed)
T9 construct: as m30; not shown: C-terminal V5 and 6xHis tags
T9 sequence: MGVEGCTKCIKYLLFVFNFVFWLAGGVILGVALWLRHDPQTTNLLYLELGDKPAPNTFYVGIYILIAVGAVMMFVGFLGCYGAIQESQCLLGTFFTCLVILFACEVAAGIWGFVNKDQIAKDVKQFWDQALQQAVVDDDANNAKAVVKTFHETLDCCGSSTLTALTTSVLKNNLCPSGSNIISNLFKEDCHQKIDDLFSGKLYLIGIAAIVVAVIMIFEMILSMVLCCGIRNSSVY

Measured: relative binding affinity

B1: 002-A07 IgG4 antibody (antibody)
heavy: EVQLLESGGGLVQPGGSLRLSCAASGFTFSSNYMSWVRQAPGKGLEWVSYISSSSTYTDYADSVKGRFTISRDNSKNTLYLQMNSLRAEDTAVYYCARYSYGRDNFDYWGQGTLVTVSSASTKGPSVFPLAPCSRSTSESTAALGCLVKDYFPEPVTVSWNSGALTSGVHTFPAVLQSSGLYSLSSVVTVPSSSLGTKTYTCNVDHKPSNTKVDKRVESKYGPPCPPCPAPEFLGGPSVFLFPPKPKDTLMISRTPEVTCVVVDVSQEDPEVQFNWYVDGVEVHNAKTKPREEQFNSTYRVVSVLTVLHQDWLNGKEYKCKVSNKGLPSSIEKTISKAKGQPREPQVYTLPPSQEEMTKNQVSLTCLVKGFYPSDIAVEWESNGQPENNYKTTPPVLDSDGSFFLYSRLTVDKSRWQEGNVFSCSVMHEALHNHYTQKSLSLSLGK
light: QSVLTQPPSASGTPGQRVTISCTGSTSNIGAGYDTHWYQQLPGTAPKLLIYGNSNRPSGVPDRFSGSKSGTSASLAISGLRSEDEADYYCQSYDTNLSVWVFGGGTKLTVLGQPKAAPSVTLFPPSSEELQANKATLVCLISDFYPGAVTVAWKADSSPVKAGVETTTPSKQSNNKYAASSYLSLTPEQWKSHRSYSCQVTHEGSTVEKTVAPTECS
notes: human IgG4 S228P, lambda light chain
< 20%: [1] | [2] | [3] | [4] | [5] | [6] | [7] | [8] | [9]

B2: 003-D07 (antibody, human IgG4 S228P, lambda, V domains shown)
VH: EVQLLESGGGLVQPGGSLRLSCAASGFTFSSNYMSWVRQAPGKGLEWVSYISSSSTYTDYADSVKGRFTISRDNSKNTLYLQMNSLRAEDTAVYYCARYSYDRDNFDYWGQGTLVTVSS
VL: QSVLTQPFSASGTPGQRVTISCTGSTSNIGAGYDTHWYQHLPGTAPKLLIYGNSNRPSGVPDRFSGSKSGTSASLAISGLRSEDEADYYCQSYDTNLSVWVFGGGTKLTVLG
notes: IgG4 S228P
< 20%: [10]

B3: 002-A07 S115A (antibody, human IgG4 S228P, lambda, V domains shown)
VH: EVQLLESGGGLVQPGGSLRLSCAASGFTFSSNYMSWVRQAPGKGLEWVSYISSSSTYTDYADSVKGRFTISRDNSKNTLYLQMNSLRAEDTAVYYCARYSYGRDNFDYWGQGTLVTVSS
VL: QSVLTQPPSASGTPGQRVTISCTGSTSNIGAGYDTHWYQQLPGTAPKLLIYGNSNRPSGVPDRFSGSKSGTSASLAISGLRSEDEADYYCQSYDTNLAVWVFGGGTKLTVLG
notes: IgG4 S228P; glycosylation site mutant of 002-A07 VL
< 20%: [11]

From patent US20150139990A1 (DAINIPPON SUMITOMO PHARMA, published 2015)
